Assay results as given in patent US20240279298A1 (BEIJING TUO JIE BIOPHARMACEUTICAL CO. LTD., priority 2021, published 2024).
Counter-ions that a name gives are not always drawn. [ ]: non-standard residue; d: D form. Aib = CC(C)(N)C(=O)O

Experiments:
human kidney microsomes = experiment: Stability in human kidney microsome incubation system
in vitro = conditions: human, human kidney microsomes
[1] = tested on: insulin-induced hypoglycemia rat model; experiment: Efficacy in insulin-induced hypoglycemic rat model; format: in vivo, SD rats; conditions: insulin 0.65 IU/kg subcutaneous at T0, phosphate buffer at 45 min (model control)
[2] = target: human glucagon receptor (GCGR) (human, UniProt P47871 26-477); experiment: cell-based or functional assay
Sequence of human glucagon receptor (GCGR) (P47871 26-477): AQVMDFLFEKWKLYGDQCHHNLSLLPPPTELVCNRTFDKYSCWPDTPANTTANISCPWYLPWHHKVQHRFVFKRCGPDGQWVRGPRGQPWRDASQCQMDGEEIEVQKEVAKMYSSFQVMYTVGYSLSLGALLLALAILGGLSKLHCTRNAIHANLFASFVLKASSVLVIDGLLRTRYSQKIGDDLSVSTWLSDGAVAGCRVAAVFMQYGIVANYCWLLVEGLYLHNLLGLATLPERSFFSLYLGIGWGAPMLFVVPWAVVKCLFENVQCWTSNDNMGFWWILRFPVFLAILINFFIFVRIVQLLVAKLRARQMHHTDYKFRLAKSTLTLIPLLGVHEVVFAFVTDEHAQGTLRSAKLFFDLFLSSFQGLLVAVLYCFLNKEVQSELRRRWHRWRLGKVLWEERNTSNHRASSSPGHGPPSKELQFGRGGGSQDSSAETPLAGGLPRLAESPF

[3] = target: human glucagon-like peptide-1 receptor (GLP-1R) (human, UniProt P43220 24-463); experiment: cell-based or functional assay
[4] = target: T1, human glucose-dependent insulinotropic polypeptide receptor (GIPR) (human, UniProt P48546 22-466); experiment: cell-based or functional assay
T1 sequence (looked up): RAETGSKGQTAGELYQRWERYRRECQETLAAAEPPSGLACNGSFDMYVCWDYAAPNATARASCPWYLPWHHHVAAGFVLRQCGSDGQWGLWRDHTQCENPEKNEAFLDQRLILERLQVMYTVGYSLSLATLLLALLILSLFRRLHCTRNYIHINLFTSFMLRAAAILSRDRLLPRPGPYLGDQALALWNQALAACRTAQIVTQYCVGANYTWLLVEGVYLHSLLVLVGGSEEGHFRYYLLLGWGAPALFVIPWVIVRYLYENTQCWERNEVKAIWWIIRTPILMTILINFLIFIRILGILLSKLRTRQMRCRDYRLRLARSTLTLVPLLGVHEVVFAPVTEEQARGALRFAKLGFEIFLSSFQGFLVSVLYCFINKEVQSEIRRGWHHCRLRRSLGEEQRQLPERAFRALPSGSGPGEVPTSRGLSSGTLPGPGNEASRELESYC

Molecule: CN(C)CCCOc1nn(Cc2ccccc2)c2ccccc12 [Benzydamine hydrochloride, benzydamine hydrochloride]
- Percentage residues 0 min (human kidney microsomes; With NADPH): 100.0%
- Percentage residues 120 min (human kidney microsomes; With NADPH): 28.12%
- Percentage residues 0 min (human kidney microsomes; Without NADPH): 100.0%
- Percentage residues 15 min (human kidney microsomes; Without NADPH): 85.59%
- Percentage residues 30 min (human kidney microsomes; Without NADPH): 86.82%
- Percentage residues 60 min (human kidney microsomes; Without NADPH): 90.39%
- Percentage residues 120 min (human kidney microsomes; Without NADPH): 90.95%
- half-life at 1 μM (in vitro): 1.1 h
- remaining at 0.25 h, 1 μM (in vitro): 83.1%
- remaining at 0.5 h, 1 μM (in vitro): 70.8%
- remaining at 1 h, 1 μM (in vitro): 54.2%

Molecule: Insulin: insulin, 0.65 IU/kg subcutaneous, used to induce hypoglycemia in the modeling groups [reference compound]
- Blood glucose 60 min [1]: 3.47 mmol/L
- Blood glucose 75 min [1]: 4.15 mmol/L
- Blood glucose 90 min [1]: 4.85 mmol/L
- Blood glucose 105 min [1]: 5.42 mmol/L

B1: Glucagon analog compound 41 (peptide)
peptide: H-HSQGTFTSDYSKYLDV[Aib]RAQEFVQWLEST-OH
SMILES: CC(C)C[C@H](NC(=O)[C@H](Cc1c[nH]c2ccccc12)NC(=O)[C@H](CCC(N)=O)NC(=O)[C@@H](NC(=O)[C@H](Cc1ccccc1)NC(=O)[C@H](CCC(=O)O)NC(=O)[C@H](CCC(N)=O)NC(=O)[C@H](C)NC(=O)[C@H](CCCNC(=N)N)NC(=O)C(C)(C)NC(=O)[C@@H](NC(=O)[C@H](CC(=O)O)NC(=O)[C@H](CC(C)C)NC(=O)[C@H](Cc1ccc(O)cc1)NC(=O)[C@H](CCCCN)NC(=O)[C@H](CO)NC(=O)[C@H](Cc1ccc(O)cc1)NC(=O)[C@H](CC(=O)O)NC(=O)[C@H](CO)NC(=O)[C@@H](NC(=O)[C@H](Cc1ccccc1)NC(=O)[C@@H](NC(=O)CNC(=O)[C@H](CCC(N)=O)NC(=O)[C@H](CO)NC(=O)[C@@H](N)Cc1c[nH]cn1)[C@@H](C)O)[C@@H](C)O)C(C)C)C(C)C)C(=O)N[C@@H](CCC(=O)O)C(=O)N[C@@H](CO)C(=O)N[C@H](C(=O)O)[C@@H](C)O
- Human GCGR receptor EC50 (nM), cAMP HTRF in CHO-K1/GCGR/CRE-Luc cells [2]: 0.058 nM
- Relative activity (%) (normalized by the activity of the native glucagon), cAMP HTRF [2]: 333%
- GLP-1R % Activity relative to native GLP-1, cAMP HTRF [3]: 0.231%
- GLP-1R EC50 (nM), cAMP HTRF in CHO-GLP-1R cells [3]: 116 nM
- GIPR % Activity relative to native GIP, cAMP HTRF [4]: < 0.07%
- GIPR EC50 (nM), cAMP HTRF in CHO-K1/GIPR cells [4]: > 100 nM

B2: Glucagon analog compound 39 (peptide)
peptide: H-HSQGTFTSDYSKYLDT[Aib]RAQEFVQWLEST-OH
SMILES: CC(C)C[C@H](NC(=O)[C@H](Cc1c[nH]c2ccccc12)NC(=O)[C@H](CCC(N)=O)NC(=O)[C@@H](NC(=O)[C@H](Cc1ccccc1)NC(=O)[C@H](CCC(=O)O)NC(=O)[C@H](CCC(N)=O)NC(=O)[C@H](C)NC(=O)[C@H](CCCNC(=N)N)NC(=O)C(C)(C)NC(=O)[C@@H](NC(=O)[C@H](CC(=O)O)NC(=O)[C@H](CC(C)C)NC(=O)[C@H](Cc1ccc(O)cc1)NC(=O)[C@H](CCCCN)NC(=O)[C@H](CO)NC(=O)[C@H](Cc1ccc(O)cc1)NC(=O)[C@H](CC(=O)O)NC(=O)[C@H](CO)NC(=O)[C@@H](NC(=O)[C@H](Cc1ccccc1)NC(=O)[C@@H](NC(=O)CNC(=O)[C@H](CCC(N)=O)NC(=O)[C@H](CO)NC(=O)[C@@H](N)Cc1c[nH]cn1)[C@@H](C)O)[C@@H](C)O)[C@@H](C)O)C(C)C)C(=O)N[C@@H](CCC(=O)O)C(=O)N[C@@H](CO)C(=O)N[C@H](C(=O)O)[C@@H](C)O
- Human GCGR receptor EC50 (nM), cAMP HTRF in CHO-K1/GCGR/CRE-Luc cells [2]: 0.072 nM
- Relative activity (%) (normalized by the activity of the native glucagon), cAMP HTRF [2]: 268%
- GLP-1R % Activity relative to native GLP-1, cAMP HTRF [3]: 0.212%
- GLP-1R EC50 (nM), cAMP HTRF in CHO-GLP-1R cells [3]: 127 nM
- GIPR % Activity relative to native GIP, cAMP HTRF [4]: < 0.07%
- GIPR EC50 (nM), cAMP HTRF in CHO-K1/GIPR cells [4]: > 100 nM

B3: Glucagon analog compound 42 (peptide)
peptide: H-HSQGTFTSDYSKYLDI[Aib]RAQEFVQWLEST-OH
SMILES: CC[C@H](C)[C@H](NC(=O)[C@H](CC(=O)O)NC(=O)[C@H](CC(C)C)NC(=O)[C@H](Cc1ccc(O)cc1)NC(=O)[C@H](CCCCN)NC(=O)[C@H](CO)NC(=O)[C@H](Cc1ccc(O)cc1)NC(=O)[C@H](CC(=O)O)NC(=O)[C@H](CO)NC(=O)[C@@H](NC(=O)[C@H](Cc1ccccc1)NC(=O)[C@@H](NC(=O)CNC(=O)[C@H](CCC(N)=O)NC(=O)[C@H](CO)NC(=O)[C@@H](N)Cc1c[nH]cn1)[C@@H](C)O)[C@@H](C)O)C(=O)NC(C)(C)C(=O)N[C@@H](CCCNC(=N)N)C(=O)N[C@@H](C)C(=O)N[C@@H](CCC(N)=O)C(=O)N[C@@H](CCC(=O)O)C(=O)N[C@@H](Cc1ccccc1)C(=O)N[C@H](C(=O)N[C@@H](CCC(N)=O)C(=O)N[C@@H](Cc1c[nH]c2ccccc12)C(=O)N[C@@H](CC(C)C)C(=O)N[C@@H](CCC(=O)O)C(=O)N[C@@H](CO)C(=O)N[C@H](C(=O)O)[C@@H](C)O)C(C)C
- Human GCGR receptor EC50 (nM), cAMP HTRF in CHO-K1/GCGR/CRE-Luc cells [2]: 0.093 nM
- Relative activity (%) (normalized by the activity of the native glucagon), cAMP HTRF [2]: 207%
- GLP-1R % Activity relative to native GLP-1, cAMP HTRF [3]: 0.291%
- GLP-1R EC50 (nM), cAMP HTRF in CHO-GLP-1R cells [3]: 92.1 nM
- GIPR % Activity relative to native GIP, cAMP HTRF [4]: < 0.07%
- GIPR EC50 (nM), cAMP HTRF in CHO-K1/GIPR cells [4]: > 100 nM

B4: Glucagon analog compound 43 (peptide)
peptide: H-HSHGTFTSDYSKYLDL[Aib]RAQEFVQWLEST-OH
SMILES: CC(C)C[C@H](NC(=O)[C@H](Cc1ccc(O)cc1)NC(=O)[C@H](CCCCN)NC(=O)[C@H](CO)NC(=O)[C@H](Cc1ccc(O)cc1)NC(=O)[C@H](CC(=O)O)NC(=O)[C@H](CO)NC(=O)[C@@H](NC(=O)[C@H](Cc1ccccc1)NC(=O)[C@@H](NC(=O)CNC(=O)[C@H](Cc1c[nH]cn1)NC(=O)[C@H](CO)NC(=O)[C@@H](N)Cc1c[nH]cn1)[C@@H](C)O)[C@@H](C)O)C(=O)N[C@@H](CC(=O)O)C(=O)N[C@@H](CC(C)C)C(=O)NC(C)(C)C(=O)N[C@@H](CCCNC(=N)N)C(=O)N[C@@H](C)C(=O)N[C@@H](CCC(N)=O)C(=O)N[C@@H](CCC(=O)O)C(=O)N[C@@H](Cc1ccccc1)C(=O)N[C@H](C(=O)N[C@@H](CCC(N)=O)C(=O)N[C@@H](Cc1c[nH]c2ccccc12)C(=O)N[C@@H](CC(C)C)C(=O)N[C@@H](CCC(=O)O)C(=O)N[C@@H](CO)C(=O)N[C@H](C(=O)O)[C@@H](C)O)C(C)C
- Human GCGR receptor EC50 (nM), cAMP HTRF in CHO-K1/GCGR/CRE-Luc cells [2]: 0.052 nM
- Relative activity (%) (normalized by the activity of the native glucagon), cAMP HTRF [2]: 371%

B5: Glucagon analog compound 40 (peptide)
peptide: H-HSQGTFTSDYSKYLDL[Aib]RAQEFVQWLEST-OH
SMILES: CC(C)C[C@H](NC(=O)[C@H](Cc1ccc(O)cc1)NC(=O)[C@H](CCCCN)NC(=O)[C@H](CO)NC(=O)[C@H](Cc1ccc(O)cc1)NC(=O)[C@H](CC(=O)O)NC(=O)[C@H](CO)NC(=O)[C@@H](NC(=O)[C@H](Cc1ccccc1)NC(=O)[C@@H](NC(=O)CNC(=O)[C@H](CCC(N)=O)NC(=O)[C@H](CO)NC(=O)[C@@H](N)Cc1c[nH]cn1)[C@@H](C)O)[C@@H](C)O)C(=O)N[C@@H](CC(=O)O)C(=O)N[C@@H](CC(C)C)C(=O)NC(C)(C)C(=O)N[C@@H](CCCNC(=N)N)C(=O)N[C@@H](C)C(=O)N[C@@H](CCC(N)=O)C(=O)N[C@@H](CCC(=O)O)C(=O)N[C@@H](Cc1ccccc1)C(=O)N[C@H](C(=O)N[C@@H](CCC(N)=O)C(=O)N[C@@H](Cc1c[nH]c2ccccc12)C(=O)N[C@@H](CC(C)C)C(=O)N[C@@H](CCC(=O)O)C(=O)N[C@@H](CO)C(=O)N[C@H](C(=O)O)[C@@H](C)O)C(C)C
- Human GCGR receptor EC50 (nM), cAMP HTRF in CHO-K1/GCGR/CRE-Luc cells [2]: 0.06 nM
- Relative activity (%) (normalized by the activity of the native glucagon), cAMP HTRF [2]: 318%
- GLP-1R % Activity relative to native GLP-1, cAMP HTRF [3]: 0.192%
- GLP-1R EC50 (nM), cAMP HTRF in CHO-GLP-1R cells [3]: 140 nM
- GIPR % Activity relative to native GIP, cAMP HTRF [4]: < 0.07%
- GIPR EC50 (nM), cAMP HTRF in CHO-K1/GIPR cells [4]: > 100 nM

B6: Glucagon analog compound 47 (peptide)
peptide: H-HSHGTFTSDYSKYLDL[Aib]RAQEFVEWLEST-OH
SMILES: CC(C)C[C@H](NC(=O)[C@H](Cc1ccc(O)cc1)NC(=O)[C@H](CCCCN)NC(=O)[C@H](CO)NC(=O)[C@H](Cc1ccc(O)cc1)NC(=O)[C@H](CC(=O)O)NC(=O)[C@H](CO)NC(=O)[C@@H](NC(=O)[C@H](Cc1ccccc1)NC(=O)[C@@H](NC(=O)CNC(=O)[C@H](Cc1c[nH]cn1)NC(=O)[C@H](CO)NC(=O)[C@@H](N)Cc1c[nH]cn1)[C@@H](C)O)[C@@H](C)O)C(=O)N[C@@H](CC(=O)O)C(=O)N[C@@H](CC(C)C)C(=O)NC(C)(C)C(=O)N[C@@H](CCCNC(=N)N)C(=O)N[C@@H](C)C(=O)N[C@@H](CCC(N)=O)C(=O)N[C@@H](CCC(=O)O)C(=O)N[C@@H](Cc1ccccc1)C(=O)N[C@H](C(=O)N[C@@H](CCC(=O)O)C(=O)N[C@@H](Cc1c[nH]c2ccccc12)C(=O)N[C@@H](CC(C)C)C(=O)N[C@@H](CCC(=O)O)C(=O)N[C@@H](CO)C(=O)N[C@H](C(=O)O)[C@@H](C)O)C(C)C
- Human GCGR receptor EC50 (nM), cAMP HTRF in CHO-K1/GCGR/CRE-Luc cells [2]: 0.076 nM
- Relative activity (%) (normalized by the activity of the native glucagon), cAMP HTRF [2]: 253%
